Results reported in patent publication US10613105 (FRAUNHOFER GESELLSCHAFT ZUR FORDERUNG DER ANGEWANDTEN …, dated 2020).

Biological target: TLR4 receptor complex expressed in the NIH 3T3 pNifty SEAP TLR4/CD14 reporter cell line
Test: cell-based or functional assay

Sequence of TLR4 receptor complex expressed in the NIH 3T3 pNifty SEAP TLR4/CD14 reporter cell line (O00206 24-839, chain 1 of 2): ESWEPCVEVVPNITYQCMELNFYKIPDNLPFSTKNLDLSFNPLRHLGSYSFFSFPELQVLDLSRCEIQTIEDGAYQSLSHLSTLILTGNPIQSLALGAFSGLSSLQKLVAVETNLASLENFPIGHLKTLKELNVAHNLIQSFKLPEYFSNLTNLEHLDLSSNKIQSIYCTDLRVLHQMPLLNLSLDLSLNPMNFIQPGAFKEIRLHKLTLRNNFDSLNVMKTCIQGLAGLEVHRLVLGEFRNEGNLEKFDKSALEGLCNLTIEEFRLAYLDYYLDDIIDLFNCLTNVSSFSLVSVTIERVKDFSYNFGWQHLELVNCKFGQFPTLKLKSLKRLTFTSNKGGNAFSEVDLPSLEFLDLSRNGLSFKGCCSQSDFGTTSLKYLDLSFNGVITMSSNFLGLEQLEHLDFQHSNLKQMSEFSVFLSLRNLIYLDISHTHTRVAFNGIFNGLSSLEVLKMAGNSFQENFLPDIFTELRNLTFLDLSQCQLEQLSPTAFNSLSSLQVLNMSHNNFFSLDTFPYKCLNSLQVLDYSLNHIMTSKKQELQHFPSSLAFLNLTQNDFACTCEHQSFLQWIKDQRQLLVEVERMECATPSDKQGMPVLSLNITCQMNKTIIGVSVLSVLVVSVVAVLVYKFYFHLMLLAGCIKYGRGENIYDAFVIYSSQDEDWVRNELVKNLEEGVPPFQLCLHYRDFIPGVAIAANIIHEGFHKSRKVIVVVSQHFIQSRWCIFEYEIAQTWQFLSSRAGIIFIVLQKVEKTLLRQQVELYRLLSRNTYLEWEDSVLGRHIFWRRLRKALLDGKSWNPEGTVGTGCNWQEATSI
Sequence of TLR4 receptor complex expressed in the NIH 3T3 pNifty SEAP TLR4/CD14 reporter cell line (P08571 20-345, chain 2 of 2, further chain): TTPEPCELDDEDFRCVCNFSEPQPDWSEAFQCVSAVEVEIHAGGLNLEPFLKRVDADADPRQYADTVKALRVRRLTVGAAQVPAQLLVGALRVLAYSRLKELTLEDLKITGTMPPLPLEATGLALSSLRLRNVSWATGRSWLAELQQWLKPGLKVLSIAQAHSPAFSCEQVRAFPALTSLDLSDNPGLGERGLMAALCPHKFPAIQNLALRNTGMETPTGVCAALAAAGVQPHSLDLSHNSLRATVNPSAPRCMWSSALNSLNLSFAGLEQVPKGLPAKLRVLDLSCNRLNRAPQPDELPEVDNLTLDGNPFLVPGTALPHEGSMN

Row | Binder | IC50 in the PAMP assay (SEAP reporter, NIH 3T3 pNifty SEAP TLR4/CD14 cells) [mM]
1 | KRKEVICRGSDDDYSFCRAL [KRKEVICRGSDDDYSFCRAL peptide (SEQ ID NO: 4)] | > 200
2 | GLLHIFYIPRRDLKQLYFNL [GLLHIFYIPRRDLKQLYFNL peptide (SEQ ID NO: 3)] | > 200

The next lines start with the values.

Row | IC50 in the PAMP assay (SEAP reporter, NIH 3T3 pNifty SEAP TLR4/CD14 cells) [mM] | Binder
3 | > 200 | KGETVNTTISFSFKGIKFSK [KGETVNTTISFSFKGIKFSK peptide (SEQ ID NO: 1)]
4 | > 200 | KMQYPISINVNPCIELKGSK [KMQYPISINVNPCIELKGSK peptide (SEQ ID NO: 2)]
